{"source": "patent US12467929", "key": {"[1]": {"biological_target": "recombinant UBE3A protein (Homo sapiens (Human)) (UniProt Q05086)", "sequence (Q05086 whole entry)": "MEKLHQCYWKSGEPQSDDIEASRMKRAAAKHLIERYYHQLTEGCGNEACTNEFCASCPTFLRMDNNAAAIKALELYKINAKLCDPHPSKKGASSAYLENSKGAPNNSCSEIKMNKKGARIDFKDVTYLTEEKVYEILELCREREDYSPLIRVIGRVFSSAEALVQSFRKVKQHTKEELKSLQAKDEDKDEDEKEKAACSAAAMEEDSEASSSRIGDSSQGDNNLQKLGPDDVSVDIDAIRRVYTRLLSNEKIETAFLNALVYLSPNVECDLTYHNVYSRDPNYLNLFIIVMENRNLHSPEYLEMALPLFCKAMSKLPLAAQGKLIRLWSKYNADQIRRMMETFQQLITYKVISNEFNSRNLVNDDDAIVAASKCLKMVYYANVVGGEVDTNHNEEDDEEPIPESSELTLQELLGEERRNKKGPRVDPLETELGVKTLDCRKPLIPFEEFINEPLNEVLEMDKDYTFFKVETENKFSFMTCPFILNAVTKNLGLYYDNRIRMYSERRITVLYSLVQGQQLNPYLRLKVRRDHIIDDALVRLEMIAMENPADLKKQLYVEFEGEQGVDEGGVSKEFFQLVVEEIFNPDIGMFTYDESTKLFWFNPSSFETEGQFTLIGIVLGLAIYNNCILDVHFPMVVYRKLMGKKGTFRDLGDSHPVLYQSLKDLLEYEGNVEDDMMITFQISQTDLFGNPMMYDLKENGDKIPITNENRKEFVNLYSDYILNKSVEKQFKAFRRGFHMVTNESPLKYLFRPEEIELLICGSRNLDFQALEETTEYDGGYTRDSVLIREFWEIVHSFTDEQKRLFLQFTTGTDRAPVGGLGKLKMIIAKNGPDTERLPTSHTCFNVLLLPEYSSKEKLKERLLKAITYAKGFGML", "assay": "2-step Simoa; capture GTX; UBE3A 0.122 ng/ml"}, "[2]": {"biological_target": "recombinant UBE3A protein (Homo sapiens (Human)) (UniProt Q05086)", "assay": "3-step Simoa; capture GTX; UBE3A 0.122 ng/ml"}, "[3]": {"biological_target": "recombinant UBE3A protein (Homo sapiens (Human)) (UniProt Q05086)", "assay": "Simoa; capture GTX; SBG 75 pm; UBE3A 4.00 ng/ml"}, "[4]": {"biological_target": "recombinant UBE3A protein (Homo sapiens (Human)) (UniProt Q05086)", "assay": "Simoa; capture GTX; SBG 100 pm; UBE3A 0.800 ng/ml"}, "[5]": {"biological_target": "recombinant UBE3A protein (Homo sapiens (Human)) (UniProt Q05086)", "assay": "Simoa; capture GTX; SBG 100 pm; UBE3A 0.00128 ng/ml"}, "[6]": {"biological_target": "recombinant UBE3A protein (Homo sapiens (Human)) (UniProt Q05086)", "assay": "Simoa; capture GTX; SBG 100 pm; UBE3A 0.00640 ng/ml"}, "[7]": {"biological_target": "recombinant UBE3A protein (Homo sapiens (Human)) (UniProt Q05086)", "assay": "Simoa; capture GTX; 3E5 0.4 ug/ml; UBE3A 0.160 ng/ml"}, "[8]": {"biological_target": "recombinant UBE3A protein (Homo sapiens (Human)) (UniProt Q05086)", "assay": "Simoa; capture GTX; 3E5 0.1 ug/ml; UBE3A 0.00640 ng/ml"}, "[9]": {"biological_target": "recombinant UBE3A protein (Homo sapiens (Human)) (UniProt Q05086)", "assay": "Simoa; capture GTX; 3E5 0.4 ug/ml; UBE3A 0.00128 ng/ml"}, "[10]": {"biological_target": "recombinant UBE3A protein (Homo sapiens (Human)) (UniProt Q05086)", "assay": "Simoa head-to-head, Table 10; capture MS 2F6; UBE3A 100 ng/ml"}, "[11]": {"biological_target": "recombinant UBE3A protein (Homo sapiens (Human)) (UniProt Q05086)", "assay": "Simoa head-to-head, Table 11; capture MS 2F6; UBE3A 100 ng/ml"}, "[12]": {"biological_target": "recombinant UBE3A protein (Homo sapiens (Human)) (UniProt Q05086)", "assay": "3-step Simoa, 120 min bead step; capture GTX; UBE3A 100 ng/ml"}, "[13]": {"biological_target": "recombinant UBE3A protein (Homo sapiens (Human)) (UniProt Q05086)", "assay": "Simoa head-to-head, Table 10; capture MS 2F6; UBE3A 0.032 ng/ml"}, "[14]": {"biological_target": "recombinant UBE3A protein (Homo sapiens (Human)) (UniProt Q05086)", "assay": "3-step Simoa, 120 min bead step; capture GTX; UBE3A 0.160 ng/ml"}, "[15]": {"biological_target": "recombinant UBE3A protein (Homo sapiens (Human)) (UniProt Q05086)", "assay": "3-step Simoa, 120 min bead step; capture GTX; UBE3A 0.800 ng/ml"}, "[16]": {"biological_target": "recombinant UBE3A protein (Homo sapiens (Human)) (UniProt Q05086)", "assay": "Simoa; capture GTX + helper beads; 3E5 0.1 ug/ml; UBE3A 4.00 ng/ml"}, "[17]": {"biological_target": "recombinant UBE3A protein (Homo sapiens (Human)) (UniProt Q05086)", "assay": "Simoa; capture GTX + helper beads; 3E5 0.1 ug/ml; UBE3A 0.160 ng/ml"}, "[18]": {"biological_target": "recombinant UBE3A protein (Homo sapiens (Human)) (UniProt Q05086)", "assay": "Simoa; capture GTX + helper beads; 3E5 0.4 ug/ml; UBE3A 0.0320 ng/ml"}, "[19]": {"biological_target": "recombinant UBE3A protein (Homo sapiens (Human)) (UniProt Q05086)", "assay": "Simoa; capture GTX, no helper beads; 3E5 0.1 ug/ml; UBE3A 0.160 ng/ml"}, "[20]": {"biological_target": "recombinant UBE3A protein (Homo sapiens (Human)) (UniProt Q05086)", "assay": "Simoa; capture GTX, no helper beads; 3E5 0.2 ug/ml; UBE3A 0.800 ng/ml"}}, "data": [{"substance": "NB500-240 (Novus) (antibody)", "values": [{"measurement": "AEB1", "setting": "[1]", "result": 0.004}, {"measurement": "AEB2", "setting": "[1]", "result": 0.0037}, {"measurement": "Ave AEB", "setting": "[1]", "result": 0.0039}, {"measurement": "Signal to Background", "setting": "[1]", "result": 1.18}, {"measurement": "AEB1", "setting": "[2]", "result": 0.0021}, {"measurement": "AEB2", "setting": "[2]", "result": 0.002}, {"measurement": "Ave AEB", "setting": "[2]", "result": 0.002}, {"measurement": "Signal to Background", "setting": "[2]", "result": 0.624}]}, {"substance": "anti-UBE3A antibody 3E5 (SAB1404508-100 ug, Millipore-Sigma)", "values": [{"measurement": "AEB1", "setting": "[3]", "result": 0.459}, {"measurement": "AEB2", "setting": "[3]", "result": 0.46}, {"measurement": "AEB3", "setting": "[3]", "result": 0.458}, {"measurement": "Average AEB", "setting": "[3]", "result": 0.459}, {"measurement": "Signal to Background", "setting": "[3]", "result": 105}, {"measurement": "AEB1", "setting": "[4]", "result": 0.21}, {"measurement": "AEB2", "setting": "[4]", "result": 0.214}, {"measurement": "AEB3", "setting": "[4]", "result": 0.211}, {"measurement": "Average AEB", "setting": "[4]", "result": 0.212}, {"measurement": "Signal to Background", "setting": "[4]", "result": 25.3}, {"measurement": "AEB1", "setting": "[5]", "result": 0.0082}, {"measurement": "AEB2", "setting": "[5]", "result": 0.0092}, {"measurement": "AEB3", "setting": "[5]", "result": 0.0096}, {"measurement": "Average AEB", "setting": "[5]", "result": 0.009}, {"measurement": "Signal to Background", "setting": "[5]", "result": 1.07}, {"measurement": "AEB1", "setting": "[6]", "result": 0.0098}, {"measurement": "AEB2", "setting": "[6]", "result": 0.0098}, {"measurement": "AEB3", "setting": "[6]", "result": 0.0111}, {"measurement": "Average AEB", "setting": "[6]", "result": 0.0103}, {"measurement": "Signal to Background", "setting": "[6]", "result": 1.22}, {"measurement": "AEB1", "setting": "[7]", "result": 0.172}, {"measurement": "AEB2", "setting": "[7]", "result": 0.165}, {"measurement": "AEB3", "setting": "[7]", "result": 0.174}, {"measurement": "Average AEB", "setting": "[7]", "result": 0.171}, {"measurement": "Signal to Background", "setting": "[7]", "result": 2.72}, {"measurement": "AEB1", "setting": "[8]", "result": 0.0251}, {"measurement": "AEB2", "setting": "[8]", "result": 0.0238}, {"measurement": "AEB3", "setting": "[8]", "result": 0.0256}, {"measurement": "Average AEB", "setting": "[8]", "result": 0.0248}, {"measurement": "Signal to Background", "setting": "[8]", "result": 1.29}, {"measurement": "AEB1", "setting": "[9]", "result": 0.0769}, {"measurement": "AEB2", "setting": "[9]", "result": 0.072}, {"measurement": "AEB3", "setting": "[9]", "result": 0.0724}, {"measurement": "Average AEB", "setting": "[9]", "result": 0.0738}, {"measurement": "Signal to Background", "setting": "[9]", "result": 1.18}, {"measurement": "AEB1", "setting": "[10]", "result": 2.71}, {"measurement": "AEB2", "setting": "[10]", "result": 2.88}, {"measurement": "Ave AEB", "setting": "[10]", "result": 2.8}, {"measurement": "Signal to Background", "setting": "[10]", "result": 207}, {"measurement": "AEB1", "setting": "[11]", "result": 1.79}, {"measurement": "AEB2", "setting": "[11]", "result": 1.84}, {"measurement": "Ave AEB", "setting": "[11]", "result": 1.81}, {"measurement": "Signal to Background", "setting": "[11]", "result": 479}, {"measurement": "AEB1", "setting": "[12]", "result": 7.86}, {"measurement": "AEB2", "setting": "[12]", "result": 8.12}, {"measurement": "Ave AEB", "setting": "[12]", "result": 7.99}, {"measurement": "Signal to Background", "setting": "[12]", "result": 4690}, {"measurement": "AEB1", "setting": "[13]", "result": 0.0162}, {"measurement": "AEB2", "setting": "[13]", "result": 0.0146}, {"measurement": "Ave AEB", "setting": "[13]", "result": 0.0154}, {"measurement": "Signal to Background", "setting": "[13]", "result": 1.14}, {"measurement": "AEB1", "setting": "[14]", "result": 0.0398}, {"measurement": "AEB2", "setting": "[14]", "result": 0.0389}, {"measurement": "Ave AEB", "setting": "[14]", "result": 0.0393}, {"measurement": "Signal to Background", "setting": "[14]", "result": 23.1}, {"measurement": "AEB1", "setting": "[15]", "result": 0.151}, {"measurement": "AEB2", "setting": "[15]", "result": 0.154}, {"measurement": "Ave AEB", "setting": "[15]", "result": 0.152}, {"measurement": "Signal to Background", "setting": "[15]", "result": 89.4}, {"measurement": "AEB1", "setting": "[16]", "result": 0.639}, {"measurement": "AEB2", "setting": "[16]", "result": 0.606}, {"measurement": "Average AEB", "setting": "[16]", "result": 0.623}, {"measurement": "Signal to Background", "setting": "[16]", "result": 109}, {"measurement": "AEB1", "setting": "[17]", "result": 0.0417}, {"measurement": "AEB2", "setting": "[17]", "result": 0.0425}, {"measurement": "Average AEB", "setting": "[17]", "result": 0.0421}, {"measurement": "Signal to Background", "setting": "[17]", "result": 7.34}, {"measurement": "AEB1", "setting": "[18]", "result": 0.037}, {"measurement": "AEB2", "setting": "[18]", "result": 0.0369}, {"measurement": "Average AEB", "setting": "[18]", "result": 0.037}, {"measurement": "Signal to Background", "setting": "[18]", "result": 1.89}, {"measurement": "AEB1", "setting": "[19]", "result": 0.0402}, {"measurement": "AEB2", "setting": "[19]", "result": 0.0395}, {"measurement": "Average AEB", "setting": "[19]", "result": 0.0399}, {"measurement": "Signal to Background", "setting": "[19]", "result": 6.95}, {"measurement": "AEB1", "setting": "[20]", "result": 0.25}, {"measurement": "AEB2", "setting": "[20]", "result": 0.247}, {"measurement": "Average AEB", "setting": "[20]", "result": 0.249}, {"measurement": "Signal to Background", "setting": "[20]", "result": 25.7}]}]}
